Patent US7098310B1, “Heterodimers of retinoid X receptors (RXRS) and other steroid hormone receptors” (Ligand Pharmaceuticals, priority 1991, dated 2006)

T1: retinoid x receptor (RXRα) (human, UniProt P19793 1-462)
T1 construct: mature; In vitro translated full length receptor; 35S-labelled in the column and immunoprecipitation experiments
T1 sequence (looked up): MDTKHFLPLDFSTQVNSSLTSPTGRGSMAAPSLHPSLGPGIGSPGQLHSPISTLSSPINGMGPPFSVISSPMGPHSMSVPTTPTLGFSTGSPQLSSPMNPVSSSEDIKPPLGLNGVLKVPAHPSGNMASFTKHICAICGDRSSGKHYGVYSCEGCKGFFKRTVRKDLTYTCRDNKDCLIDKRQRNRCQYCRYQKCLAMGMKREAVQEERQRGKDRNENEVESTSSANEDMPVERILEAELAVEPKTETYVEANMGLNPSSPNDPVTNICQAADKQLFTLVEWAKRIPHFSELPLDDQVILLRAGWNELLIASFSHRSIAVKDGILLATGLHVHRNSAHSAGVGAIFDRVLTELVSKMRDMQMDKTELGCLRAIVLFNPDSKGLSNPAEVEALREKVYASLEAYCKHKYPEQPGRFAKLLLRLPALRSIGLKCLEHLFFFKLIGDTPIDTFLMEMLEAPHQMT

T2: retinoic acid receptor RARγ (UniProt P13631 1-454, limits assumed)
T2 construct: mature; In vitro translated
T2 sequence (looked up): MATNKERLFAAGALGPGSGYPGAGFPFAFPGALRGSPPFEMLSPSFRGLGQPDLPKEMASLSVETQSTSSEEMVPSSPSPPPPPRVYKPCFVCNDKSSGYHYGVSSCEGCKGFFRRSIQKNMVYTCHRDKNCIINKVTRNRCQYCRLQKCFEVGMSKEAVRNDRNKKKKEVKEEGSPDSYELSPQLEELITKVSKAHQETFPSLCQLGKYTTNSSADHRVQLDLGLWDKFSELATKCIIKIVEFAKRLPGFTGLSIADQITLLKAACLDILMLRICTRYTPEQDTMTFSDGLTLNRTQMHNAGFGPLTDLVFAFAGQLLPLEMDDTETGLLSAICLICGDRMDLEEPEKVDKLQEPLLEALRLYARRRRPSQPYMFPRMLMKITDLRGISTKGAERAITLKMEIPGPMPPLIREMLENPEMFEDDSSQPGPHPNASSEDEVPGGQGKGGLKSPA

T3: thyroid hormone receptor TRβ (human, UniProt P10828 1-461)
T3 construct: mature; In vitro translated; also called TR-B; c-erb-A-B
T3 sequence (looked up): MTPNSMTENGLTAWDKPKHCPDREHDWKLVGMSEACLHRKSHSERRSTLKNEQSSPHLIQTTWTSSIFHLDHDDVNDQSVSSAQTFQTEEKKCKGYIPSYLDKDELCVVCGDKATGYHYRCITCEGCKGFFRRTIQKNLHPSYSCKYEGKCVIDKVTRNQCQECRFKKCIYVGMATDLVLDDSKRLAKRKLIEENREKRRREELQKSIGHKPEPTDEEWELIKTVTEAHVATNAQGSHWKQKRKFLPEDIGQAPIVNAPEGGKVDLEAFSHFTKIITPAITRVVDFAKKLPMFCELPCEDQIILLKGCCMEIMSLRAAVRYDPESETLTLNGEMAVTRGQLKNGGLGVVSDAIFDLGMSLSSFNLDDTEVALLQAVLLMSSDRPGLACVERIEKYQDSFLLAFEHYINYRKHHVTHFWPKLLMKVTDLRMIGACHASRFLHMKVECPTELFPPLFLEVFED

T4: retinoic acid receptor RARα (UniProt P10276 1-462, limits assumed)
T4 construct: mature; In vitro translated
T4 sequence (looked up): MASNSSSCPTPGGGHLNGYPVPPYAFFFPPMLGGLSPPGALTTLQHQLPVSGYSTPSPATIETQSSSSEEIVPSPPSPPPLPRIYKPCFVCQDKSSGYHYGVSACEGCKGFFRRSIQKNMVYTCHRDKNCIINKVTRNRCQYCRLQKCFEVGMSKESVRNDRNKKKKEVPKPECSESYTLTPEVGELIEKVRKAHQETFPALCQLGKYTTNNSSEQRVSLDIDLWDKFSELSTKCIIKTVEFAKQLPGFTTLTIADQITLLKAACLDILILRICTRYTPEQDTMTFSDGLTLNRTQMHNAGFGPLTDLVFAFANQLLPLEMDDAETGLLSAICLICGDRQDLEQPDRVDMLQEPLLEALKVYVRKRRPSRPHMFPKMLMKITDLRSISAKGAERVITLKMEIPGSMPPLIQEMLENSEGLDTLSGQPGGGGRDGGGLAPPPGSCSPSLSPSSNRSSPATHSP

T5: retinoic acid receptor RARβ (UniProt P10826 1-455, limits assumed)
T5 construct: mature; In vitro translated
T5 sequence (looked up): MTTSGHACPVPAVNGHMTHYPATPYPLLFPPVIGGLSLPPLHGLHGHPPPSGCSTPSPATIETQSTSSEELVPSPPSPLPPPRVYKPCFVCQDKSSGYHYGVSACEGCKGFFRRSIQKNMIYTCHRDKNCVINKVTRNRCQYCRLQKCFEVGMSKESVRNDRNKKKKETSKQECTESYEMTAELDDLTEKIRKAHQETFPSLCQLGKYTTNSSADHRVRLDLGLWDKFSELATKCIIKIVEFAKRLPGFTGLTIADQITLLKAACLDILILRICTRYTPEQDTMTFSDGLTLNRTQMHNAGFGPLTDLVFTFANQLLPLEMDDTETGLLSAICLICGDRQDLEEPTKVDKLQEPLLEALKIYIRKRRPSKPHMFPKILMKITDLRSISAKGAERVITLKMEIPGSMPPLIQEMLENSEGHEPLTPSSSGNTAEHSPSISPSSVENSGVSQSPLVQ


Key:
[1] = biological target: T1, retinoid x receptor (RXRα); experiment: gel retardation, 32P palindromic TRE, in vitro translated receptors
Description: (§1) After incubation at room temperature for 45 minutes, the effect of antibody on slow migrating complexes was analyzed by gel retardation using ^32-labelled palindromic TRE as a probe. As a control, receptor mixtures were also incubated with preimmune serum (NI).
(§2) In vitro translated receptor protein (1 to 5 µl depending on the translation efficiency) was incubated with the ^32P-labeled oligonucleotides in a 20-µl reaction mixture containing 10 mM hepes buffer, pH 7.9, 50 mM KCl, 1 mM DTT, 2.5 mM MgCl, 10% glycerol, and 1 µg of poly(dI-dC) at 25° C. for 20 minutes. In general, relative low receptor concentration was used to obtain the clear effect of heterodimer formation. The reaction mixture was then loaded on a 5% nondenaturing polyacrylamide gel containing 0.5× TBE (1×TBE=0.089 M TRIS-borate, 0.089 M boric acid, and 0.002 M EDTA). […] When antibody was used, 1 µl of the antiserum was incubated with the specific translation products at room temperature for 45 minutes before performing the experiments described above.

[2] = biological target: T2, retinoic acid receptor RARγ; experiment: as above
Description: as §1, §2

[3] = biological target: T3, thyroid hormone receptor TRβ; experiment: gel retardation, 32P palindromic TRE (data not shown)
[4] = biological target: T4, retinoic acid receptor RARα; experiment: as above
[5] = biological target: T5, retinoic acid receptor RARβ; experiment: as above

Row | binding result [1] | binding result [2] | binding result [3] | Binder | other results
1 | no binding |  |  | TRαm3 (receptor, UniProt P63059-2 1-167, looked up, In vitro translated deletion mutant) MEQKPSKVECGSDPEENSARSPDGKRKRKNGQCPLKSSMSGYIPSYLDKDEQCVVCGDKATGYHYRCITCEGCKGFFRRTIQKNLHPTYSCKYDSCCVIDKITRNQCQLCRFKKCIAVGMAMDLVLDDSKRVAKRKLIEQNRERRRKEEMIRSLQQRPEPTPEEWDL | 
2 | no binding |  |  | RARγm1 (receptor, UniProt P13631 1-352, looked up, In vitro translated deletion mutant; also called RARγml) MATNKERLFAAGALGPGSGYPGAGFPFAFPGALRGSPPFEMLSPSFRGLGQPDLPKEMASLSVETQSTSSEEMVPSSPSPPPPPRVYKPCFVCNDKSSGYHYGVSSCEGCKGFFRRSIQKNMVYTCHRDKNCIINKVTRNRCQYCRLQKCFEVGMSKEAVRNDRNKKKKEVKEEGSPDSYELSPQLEELITKVSKAHQETFPSLCQLGKYTTNSSADHRVQLDLGLWDKFSELATKCIIKIVEFAKRLPGFTGLSIADQITLLKAACLDILMLRICTRYTPEQDTMTFSDGLTLNRTQMHNAGFGPLTDLVFAFAGQLLPLEMDDTETGLLSAICLICGDRMDLEEPEKVDK | 
3 |  | no binding |  | RXRαm6 (receptor, human, UniProt P19793 1-462, looked up, In vitro translated deletion mutant) MDTKHFLPLDFSTQVNSSLTSPTGRGSMGMKREAVQEERQRGKDRNENEVESTSSANEDMPVERILEAELAVEPKTETYVEANMGLNPSSPNDPVTNICQAADKQLFTLVEWAKRIPHFSELPLDDQVILLRAGWNELLIASFSHRSIAVKDGILLATGLHVHRNSAHSAGVGAIFDRVLTELVSKMRDMQMDKTELGCLRAIVLFNPDSKGLSNPAEVEALREKVYASLEAYCKHKYPEQPGRFAKLLLRLPALRSIGLKCLEHLFFFKLIGDTPIDTFLMEMLEAPHQMT | 
4 |  |  | binds | RXRαm4 (receptor, human, UniProt P19793 61-462, looked up, range 61-462; 35S-labelled in the column experiment; also called mutant RXRαm4) MGPPFSVISSPMGPHSMSVPTTPTLGFSTGSPQLSSPMNPVSSSEDIKPPLGLNGVLKVPAHPSGNMASFTKHICAICGDRSSGKHYGVYSCEGCKGFFKRTVRKDLTYTCRDNKDCLIDKRQRNRCQYCRYQKCLAMGMKREAVQEERQRGKDRNENEVESTSSANEDMPVERILEAELAVEPKTETYVEANMGLNPSSPNDPVTNICQAADKQLFTLVEWAKRIPHFSELPLDDQVILLRAGWNELLIASFSHRSIAVKDGILLATGLHVHRNSAHSAGVGAIFDRVLTELVSKMRDMQMDKTELGCLRAIVLFNPDSKGLSNPAEVEALREKVYASLEAYCKHKYPEQPGRFAKLLLRLPALRSIGLKCLEHLFFFKLIGDTPIDTFLMEMLEAPHQMT | 
5 |  | no binding | no binding | RXRαm1 (receptor, human, UniProt P19793 1-402, looked up, range: lacks the carboxyterminal 60 amino acids; In vitro translated deletion mutant) MDTKHFLPLDFSTQVNSSLTSPTGRGSMAAPSLHPSLGPGIGSPGQLHSPISTLSSPINGMGPPFSVISSPMGPHSMSVPTTPTLGFSTGSPQLSSPMNPVSSSEDIKPPLGLNGVLKVPAHPSGNMASFTKHICAICGDRSSGKHYGVYSCEGCKGFFKRTVRKDLTYTCRDNKDCLIDKRQRNRCQYCRYQKCLAMGMKREAVQEERQRGKDRNENEVESTSSANEDMPVERILEAELAVEPKTETYVEANMGLNPSSPNDPVTNICQAADKQLFTLVEWAKRIPHFSELPLDDQVILLRAGWNELLIASFSHRSIAVKDGILLATGLHVHRNSAHSAGVGAIFDRVLTELVSKMRDMQMDKTELGCLRAIVLFNPDSKGLSNPAEVEALREKVYASLEA | binding result [4]: no binding; binding result [5]: no binding
6 |  | no binding |  | RXRαm5 (receptor, human, UniProt P19793 198-462, looked up) MGMKREAVQEERQRGKDRNENEVESTSSANEDMPVERILEAELAVEPKTETYVEANMGLNPSSPNDPVTNICQAADKQLFTLVEWAKRIPHFSELPLDDQVILLRAGWNELLIASFSHRSIAVKDGILLATGLHVHRNSAHSAGVGAIFDRVLTELVSKMRDMQMDKTELGCLRAIVLFNPDSKGLSNPAEVEALREKVYASLEAYCKHKYPEQPGRFAKLLLRLPALRSIGLKCLEHLFFFKLIGDTPIDTFLMEMLEAPHQMT | 
7 | no binding |  |  | TRαm2 (receptor, UniProt P63059-2 1-213, looked up, In vitro translated deletion mutant) MEQKPSKVECGSDPEENSARSPDGKRKRKNGQCPLKSSMSGYIPSYLDKDEQCVVCGDKATGYHYRCITCEGCKGFFRRTIQKNLHPTYSCKYDSCCVIDKITRNQCQLCRFKKCIAVGMAMDLVLDDSKRVAKRKLIEQNRERRRKEEMIRSLQQRPEPTPEEWDLIHVATEAHRSTNAQGSHWKQRRKFLPDDIGQSPIVSMPDGDKVDLE | 
8 |  |  | binds | RXRαm3 (receptor, human, UniProt P19793 28-462, looked up, range 28-C-terminus) MAAPSLHPSLGPGIGSPGQLHSPISTLSSPINGMGPPFSVISSPMGPHSMSVPTTPTLGFSTGSPQLSSPMNPVSSSEDIKPPLGLNGVLKVPAHPSGNMASFTKHICAICGDRSSGKHYGVYSCEGCKGFFKRTVRKDLTYTCRDNKDCLIDKRQRNRCQYCRYQKCLAMGMKREAVQEERQRGKDRNENEVESTSSANEDMPVERILEAELAVEPKTETYVEANMGLNPSSPNDPVTNICQAADKQLFTLVEWAKRIPHFSELPLDDQVILLRAGWNELLIASFSHRSIAVKDGILLATGLHVHRNSAHSAGVGAIFDRVLTELVSKMRDMQMDKTELGCLRAIVLFNPDSKGLSNPAEVEALREKVYASLEAYCKHKYPEQPGRFAKLLLRLPALRSIGLKCLEHLFFFKLIGDTPIDTFLMEMLEAPHQMT | 
